Molecular target: methemoglobin (UniProt P69905)
Assay: ELISA

Substance | percent loss of hemoglobin binding against the untreated sample [%] | EC50 [nM]
DEPC-treated wild-type ShuA (from UniProt P72412 1-660) (natural protein) | 60 | 
DEPC-treated wild-type ShuA further treated with hydroxylamine (from UniProt P72412 1-660) (natural protein) | 40 | 
purified ShuA Ala-L11 (non-phage-displayed) (from UniProt P72412 1-660) (natural protein) |  | 530
purified ShuA H86A/H420A (non-phage-displayed) (natural protein) |  | 6900
purified wild-type ShuA (non-phage-displayed) (from UniProt P72412) (natural protein; other documents disagree on this pair) |  | 530
